# In the supplement of paper PMC9170038:
# System: K4 kissing-loop RNA reporter
# Experiment: apparent KD of K4 kissing-loop reporter; higher = weaker reporter binding
# Details: Eterna round: R107; input ligand: arginine 13.2 mM
# Description: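 RNA-MaP round R107: designed RNA switches with theophylline, tryptophan, arginine or FMN aptamers are transcribed on-chip within common flanks. They are titrated with a labelled K4 kissing-loop RNA reporter in RNA-MaP buffer (100 mM Tris pH 7.5, 80 mM KCl, 4 mM MgCl2), without ligand or with the indicated ligand. Median apparent KD per design.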
# 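Also: bound reporter read as fluorescence of individual clusters on recovered sequencing chips by microscopy, with normalized cluster intensities fitted with a binding model.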
row,Sequence,apparent KD of K4 kissing-loop reporter [nM]
1,GGUUCCUCAGUGAUGUUGAGGUGACCUCGGCAGGAUAUAGGCAUUACUAGAAGGGCCAAAAGAACCCUGUCCAGCGACACAGGGA [Zalatiat],238
2,GAGAUAGCGACGGCCGCCACUAGUGAUGUUAGUGCGGGUAGAUAGAUACUUGAACAGAAAUGACGUAGGACCGGGUCAGAUAGAG [#02 K4 Tryptophan B Exclusion],94.5
3,CACCGGACGAAAGAUACCAGUUACUAUAUUAGGGUGCCUUGGCUAGUGAUGUUAGAGAGUAACCCUUGGCAGCUUUGGUACUUAU [theeternabot_exclusion_KL_Theo_B_21],367
4,CGGUAGUCUAUAGGGUCCAGUGAUGUUGGACAGGAUAUGCUACGCCGCAGAAGGGUCCAACUGGUUGUGAAGUUGGCUACUAGGC [Somaaxe],200
5,AGGUUUUGAUUAGGAUAUGCACUGAGGAGGAGAAUAUAGUGAUGUUAUAUAAGAGGAAGGAGAAGAGUAGAAGGGAUUGAGGUUU [SSFMNB.Q],285
6,AAUAACUAGUAUAUUUGUAAUAAAACAGAUACCAGUGAUAAUAAACACCCUUGGCAGCUGAUCGAGUGAUGUUCGUUUAUUUUAA [JR_SSTheophyA_Sub004],96.5
7,GCUACUGCCUUAGGAUAUAGUUGAGUGAUGUUCAAGCAUAUGCAUGGGAAAACCAUGCAUAUGUCCCUAGAAGGGAGGCAGUAGC,627
8,GCGCGGCUCAGUGAUGUUGAGCCUCGGAAACGAGGACCGGUACGGCCGCCACUCGUCCGCGCAGCUGAGGCAAAAGCCUCGGCAA [Omei KL Tryp A SS B v1],276
9,GAUACGUCAGUGAUGUUGAUGUAUUACACAGAGGAUAUCGUAAUGACGAGAAGGCUGAGCCAUCUAGAGAUACGUAAGACGUAUC [FMN A SS t5],196
10,UUCAGUGACAUACGAGUGAUGUUCGUAAUACGAGGACCGGUACGGCCGCCACUCGCACGUCGGCAGUUUGUUCAUGCAUCAGACU,160
11,UUAUACAACUGAAGGAGCGCCAGUGAUGUUGGCGUGACGACUGCUUCCUUCGCCGAGUCCUGGCAGGUAGGUCGCAGUUGCUGAA [Oratgere],97.2
12,AAGGUAUCACCAACUUGCAACAAAGGUGAUACCAGCAUCGAAAGAUGCCCUUGGCAGCACCAACUUGCAGUGAUGUUGCAAGUAA [(T)'-(H)'-(T1)-(T2)-(H1)-(H2)_Design10],161
13,AAGGCAGUUCGAGGAUAUCACAUACACUCCUUGAAUCAAGGAGUGAUGUUCCUUGAAGUGUAUGCAUGAGAAGGCGAAUUGCCUU [FMN B SS t5],103
14,GGGUUUGCCGGAAGGAGCGCACUAUGGAGUGAUGUUCCAUGACCGCACAGCUUGCGGUCAGUGCAGGUAGGUCGCCGGUAACGUU [Enatbeve],181
15,UAUACUAGACAAGAGAGAAUUCUCUCAAGAGAGGAUAUCCGAAUUCGGAGAAGGCUCUCUCAGUGAUGUUGGGUAUAGUCUAGAA [AK7 SS FMN A],222
16,AAACAUUGGUCUGAUACCAGUUAGACCGAUAAGGUCAAAACUGGAGUGAUGUUCCCAAAUAACCCUUGGCAGCAGACCGAUGAAA [MAT - Same State Theophlline B - Mod of Eli - D10],66
17,UGGACCAAGGAGUGAUGUUCCAUAUGUGAUACCAGCCACGAAAGUGGCCCUUGGCAGCACUGCCAGGACGAAAACGUCCGGUCCU [#SwitchBubble 13 #StaticStem #K4Early],346
18,GUCCCAGUGAUGUUGGUAGGCGAGCGGGAUACCAGCGAAGACUCACGCCCUUGGCAGCCCACAUAUCCCACGUAGGGAUUAGCUC [Same State - Theophylline A (Freestyle 20)],359
19,UGACUGGACUGAAGGAGCGAGCGAGACAAAGUCUCGGAAAUUCAGUGAUGUUGAUAUAUAACUCAGGUAGGUCGCAGUCUAGUCU [ArgBS 6 #SwitchBubble #StaticStem],411
20,UAGCGGUGGAGGCCACCGCUAUUCUGAGAAGGAGCGCAGAUGACUGCAGGUAGGUCGCUUAGAGCUUGCAGUGAUGUUGCAAGUU [Araatlaqu],144
21,GCAUGACGGUAAGGAUAUAGAUAAUCCUUAUAUACGUCGAGUGAUGUUCGAUGUGCCAAGGCACAUCUAGAAGGUACUGUUAGGU [Same State FMN B GF 18],760
22,ACGUAUAUCAGAGGAUAUCGUAUUAAUAUUUUAUCUAUCUAUAUAUGCAGUGAUGUUGCAAUAAUUCGAGAAGGCUGAUUUACGA [JR_ExcFMNB_Sub010],124
23,UCUGCAAAGUCGGCCGCCACUCCGGGCCCUAUAAAUGGGCGCAGUGAUGUUGCGGCUAGGCCUCUGAGGACCGGGACUUCGUAGA [Somale],52.1
24,UGACUACAUCCUAGUGAUGUUUAGGAUAUGUAGGAUAUGCUGAUAAGCAGAAGGACAGAAGGAAGUGAUGUUCUUAAAGUAGUCU [FmnAX 29 #DoubleAptamer #Double K4 #SwitchBubble #StaticStem],783

# Same assay, conditions: Eterna round: R107; input ligand: none
row,Sequence,apparent KD of K4 kissing-loop reporter [nM]
1,CUAGAAGUGAUGUUUCAUAGUAAAUCUGAUACCAGCAUUAAACCCUGCCCUUGGCAGCAGAAUGGGCUGAUAGACUCCUGCAGCU [theeternabot_sameState_KL_Theo_A_36],228
2,AGUGAUAUAUGAGGAUAUGGGUUGGUUAAUGAGUUAGUUUUAGUGUUGUUUGGUUAGUGAUGUUAUUUAGAAGGCGUGAGUGAUG [sffdsmullin],81.8
3,GGAUAACAGGCAGGAUAUGCUUAGUAGUAAGGCCAUAUAUACGUAUAGAGUGAUGUUUUGUACAAGGCAGAAGGGCUAAAUCCAU [FMN B Excl V2 (+4G)],421
4,AAACAUUGGUCUGAUACCAGCUUGAUCGGUAAACGAUCUACUGGAGUGAUGUUCCUAAAUAGCCCUUGGCAGCAGACCGAUGAAA [MAT - Same State Theophlline B - Mod of Eli - D6],177
5,CUGUUUUAGUCGGCCGCCACUGCAAGUGAUGUUUGGAGUAUUAUGCCGUUUCUGUCCAUUGAACCCAGGACCGGGACCGGAUCGU [theeternabot_exclusion_KL_Trp_B_8],206
6,UGAUACCAGACGGCCGCCACUCCCGUAAGUCAAAGACUUACCAAGAGAAUCGUCCAGUGAUGUUGGAGGACCGGGUCUGGUAUCU [FiskerMod 8 - Jieux - Exclusion - Tryptophan B],998
7,AACAGCAAUGCGGCCGCCACUUCGAGGUCAGUGAUGUUGACGGGAUUAAAUAAAGAUCCCAAGAGGAGGACCGGGCAGUGCUGUU [whbob_SS_Tryp_B_t26],215
8,CACGAUGAAUUCUCUAGGAGUGAUGUUUUUCGAGGACCGGUACGGCCGCCACUCGGACGACGAGCGUGGUAGCGGCGUGAAGACU [zamullin],625
9,GGUUCCUCAGUGAUGUUGAGGUGACCUCGGCAGGAUAUAGGCAUUACUAGAAGGGCCAAAAGAACCCUGUCCAGCGACACAGGGA [Zalatiat],305
10,GAGAUAGCGACGGCCGCCACUAGUGAUGUUAGUGCGGGUAGAUAGAUACUUGAACAGAAAUGACGUAGGACCGGGUCAGAUAGAG [#02 K4 Tryptophan B Exclusion],125
11,CACCGGACGAAAGAUACCAGUUACUAUAUUAGGGUGCCUUGGCUAGUGAUGUUAGAGAGUAACCCUUGGCAGCUUUGGUACUUAU [theeternabot_exclusion_KL_Theo_B_21],390
12,CGGUAGUCUAUAGGGUCCAGUGAUGUUGGACAGGAUAUGCUACGCCGCAGAAGGGUCCAACUGGUUGUGAAGUUGGCUACUAGGC [Somaaxe],168
13,AGGUUUUGAUUAGGAUAUGCACUGAGGAGGAGAAUAUAGUGAUGUUAUAUAAGAGGAAGGAGAAGAGUAGAAGGGAUUGAGGUUU [SSFMNB.Q],191
14,AAUAACUAGUAUAUUUGUAAUAAAACAGAUACCAGUGAUAAUAAACACCCUUGGCAGCUGAUCGAGUGAUGUUCGUUUAUUUUAA [JR_SSTheophyA_Sub004],124
15,GCUACUGCCUUAGGAUAUAGUUGAGUGAUGUUCAAGCAUAUGCAUGGGAAAACCAUGCAUAUGUCCCUAGAAGGGAGGCAGUAGC,859
16,GCGCGGCUCAGUGAUGUUGAGCCUCGGAAACGAGGACCGGUACGGCCGCCACUCGUCCGCGCAGCUGAGGCAAAAGCCUCGGCAA [Omei KL Tryp A SS B v1],319
